From patent US6096512A, “Cloned DNA encoding a UDP-GalNAc: Polypeptide, N-acetylgalactosaminyltransferase” (Pharmacia & Upjohn Company, priority 1997, dated 2000)
“Also recorded” adds a separate entry of the source.

How the values were obtained:
[1] = system: GalNAc-transferase activity in Sf9 cells; test: Expression of baculovirus isolates of soluble GalNAc-transferase in Sf9 cells, total activity; assay type: cell-based, Spodoptera frugiperda; conditions: for Total activity, cell lysate / Total activity, culture medium: 65 hours post infection; for Total activity, cell lysate: 1X10^6 cells; for Total activity, culture medium: culture medium volume 5 ml
Protocol: GalNAcTs was routinely expressed in one liter batches. Approximately 1×10^9 cells in one liter Grace's serum-free insect medium (Insect Express) were infected with 5 pfu/cell of GalNAcTs-Mel. The infected cells were cultured in shaker flasks for 65 hours before harvest.
^a 1 unit equals one mole Nacetylgalactosamine transferred to apomuci
per minute, under assay conditions.
Cells (1X10^6) were infected with recombinant virus containing GalNAcTs-Mel (5 pfu/cell). The cells were harvestd 65 hours post infrction, lysed in a detergent containing buffer and the GalNac-transferase activity was determined in the cell lysates and the corresponding culture media; lysate and culture medium from uninfected cells were assayed as control. The numbers have been adjusted for differences in protein content in the cell lysates; the volume of the culture media was 5 ml.

[2] = target: T1, bovine colostrum GalNAc-transferase (Bos taurus, UniProt Q07537); test: Transfer of N-acetylgalactosamine to protein acceptors by bovine colostrum GalNAc-transferase; assay type: biochemical; conditions: for Product formed, native acceptor / Product formed, reduced and carboxymethylated acceptor: acceptor 65 μM, enzyme approximately 65 mU/ml, 60 minutes; for Product formed, reduced and carboxymethylated acceptor: myelin basic protein was not reduced and carboxymethylated; for acceptor activity in words: native or reduced and carboxymethylated
T1 sequence (Q07537 41-559): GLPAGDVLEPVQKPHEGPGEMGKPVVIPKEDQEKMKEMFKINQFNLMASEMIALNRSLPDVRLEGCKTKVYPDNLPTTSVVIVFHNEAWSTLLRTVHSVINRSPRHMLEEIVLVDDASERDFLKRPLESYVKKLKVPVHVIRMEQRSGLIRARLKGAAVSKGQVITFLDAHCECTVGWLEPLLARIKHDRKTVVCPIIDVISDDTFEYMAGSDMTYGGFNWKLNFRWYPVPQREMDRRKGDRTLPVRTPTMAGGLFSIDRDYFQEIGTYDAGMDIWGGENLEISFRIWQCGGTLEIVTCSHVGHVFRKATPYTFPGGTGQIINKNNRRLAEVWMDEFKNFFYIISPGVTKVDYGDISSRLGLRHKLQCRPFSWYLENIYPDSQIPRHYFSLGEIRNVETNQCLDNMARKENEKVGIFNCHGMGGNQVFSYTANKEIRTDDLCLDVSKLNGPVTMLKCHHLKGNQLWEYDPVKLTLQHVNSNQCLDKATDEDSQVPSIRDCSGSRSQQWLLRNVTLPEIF
Protocol: (§1) The standard assay for UDP-GalNAc:polypeptide, N-acetylgalactosaminyltransferase activity during purification contained the following components in a final volume of 80 μl: 50 mM Imidazole pH 7.2, 10 mM MnCl2, 0.5% Triton X-100, 15 μM UDP-GalNAc, UDP[1-^3 H-] GalNAc (27,000 cpm/assay), 0.15 mg/ml apomucin and varying amounts of enzyme (see individual experiments). The reaction mixture is incubated at 37° C. for 5-10 minutes (see individual experiments) and the reaction product is TCA precipitated and radioactivity measured as described. Assays for activity in lysates from Spodoptera frugiperda cell line 9 (hereinafter referred to as Sf9 cells) are carried out as described by Thomsen et al., (1990).
The above conclusions and the predictions of the specificity algorithm are validated experimentally by studying the ability of bovine colostrum GalNAc-transferase to transfer N-acetylgalactosamine to a variety of acceptors, both native proteins and synthetic acceptor peptides. The transfer of N-acetylgalactosamine to protein acceptors is assayed as described by Elhammer and Kornfeld, 1986, with minor modifications. The concentration of UDP-GalNAc is saturating in all assays; a Km of 8 μM is reported for bovine colostrum GalNAc-transferase (Elhammer and Kornfeld, 1986).
The transfer of N-acetylgalactosamine to protein acceptors was assayed
under standard conditions (see Material and Methods). The acceptor
concentration was 65 μM, the enzyme concentration approximately
65 mU/ml and assay time was 60 minutes. The transfer to both native and
reduced-carboxymethylated acceptors was assayed.

[3] = system: GalNAc-transferase activity in Sf9 cells; test: Expression of baculovirus isolates of the GalNAc-transferase in Sf9 cells, GalNAcT activity; assay type: cell-based, Spodoptera frugiperda; conditions: for Specific activity: Sf9 cell lysates, 48 hours post infection; for Relative rate: relative to uninfected cells
Protocol: as §1
The putative GalNAcT coding region, pCR1000-91B, is digested with SstII and HindIII (both enzymes cut only in pCR1000 sequences that flank the insert; FIG. 2C) and these sites are blunted using T4 DNA polymerase so that it can be cloned into a baculovirus expression vector. BamHI linkers are then ligated onto the blunted ends and the resulting sample is ligated into the BamHI site of the baculovirus expression vector pAC373 (Summers and Smith, 1986). The resulting isolates are screened for proper orientation of the GalNAcT open reading frame with respect to the baculovirus polyhedron promoter, to yield pAC373-GalNAcT. Cotransfection of Sf9 cells with pAC373-GaINAcT and linearized baculovirus DNA from PharMingen's baculoGold transfection kit is performed using calcium phosphate precipitation (Summers & Smith, 1986). The baculovirus DNA provided in the PharMingen transfection kit contains a lethal mutation that can be corrected by homologous recombination with sequences contained in the pAC373 vector. Therefore, following transfection, only recombinant viruses will grow on Sf9 cells. Transfections are done in duplicate and the resulting virus samples are referred to as GalNAcT 2-1A and GaINAcT 2-1B. Cells are harvested 48 hours post infection and lysed in a detergent containing buffer. Following sedimentation of undissolved material, the cleared lysates are assayed for GalNAcT activity. Lysates from uninfected cells or from cells infected with either a baculovirus containing an unrelated gene, CMV-POL (human cytomegalovirus DNA polymerase gene), or two separate baculovirus isolates of the GaINAcT gene, GalNAcT 2-1A and GaINAcT 2-1B, are assayed.

B1: GalNAcT-Mel: recombinant baculovirus that expresses a secreted form of GalNAc-transferase with honeybee melittin signal peptide (protein)
chain: DPSPALEPVQKPHEGPGEMGKPVVIPKEDQEKMKEMFKINQFNLMASEMIALNRSLPDVRLEGCKTKVYPDNLPTTSVVIVFHNEAWSTLLRTVHSVINRSPRHMLEEIVLVDDASERDFLKRPLESYVKKLKVPVHVIRMEQRSGLIRARLKGAAVSKGQVITFLDAHCECTVGWLEPLLARIKHDRKTVVCPIIDVISDDTFEYMAGSDMTYGGFNWKLNFRWYPVPQREMDRRKGDRTLPVRTPTMAGGLFSIDRDYFQEIGTYDAGMDIWGGENLEISFRIWQCGGTLEIVTCSHVGHVFRKATPYTFPGGTGQIINKNNRRLAEVWMDEFKNFFYIISPGVTKVDYGDISSRLGLRHKLQCRPFSWYLENIYPDSQIPRHYFSLGEIRNVETNQCLDNMARKENEKVGIFNCHGMGGNQVFSYTANKEIRTDDLCLDVSKLNGPVTMLKCHHLKGNQLWEYDPVKLTLQHVNSNQCLDKATDEDSQVPSIRDCSGSRSQQWLLRNVTLPEIF
[1]
  portion of total enzymatic activity retained inside the cells: 36%
  Total activity, cell lysate: 32.15 U
  Total activity, culture medium: 57.80 U
[1]; culture medium
  activity in medium relative to cells expressing the full length molecule: more than 35 times
[1]; vs uninfected cells
  increase in GalNAc-transferase activity in the culture medium: 130 fold

B2: Bovine rhodanese: cytoplasmic protein containing three strong predicted glycosylation sites (protein)
chain: VHQVLYRALVSTKWLAESVRAGKVGPGLRVLDASWYSPGTREARKEYLERHVPGASFFDIEECRDKASPYEVMLPSEAGFADYVGSLGISNDTHVVVYDGDDLGSFYAPRVWWMFRVFGHRTVSVLNGGFRNWLKEGHPVTSEPSRPEPAIFKATLNRSLLKTYEQVLENLESKRFQLVDSRAQGRYLGTQPEPDAVGLDSGHIRGSVNMPFMNFLTEDGFEKSPEELRAMFEAKKVDLTKPLIATCRKGVTACHIALAAYLCGKPDVAIYDGSWFEWFHRAPPETWVSQGKGGKA
[2]
  Product formed, native acceptor: < 0.1 nmol/min/mg
  Product formed, reduced and carboxymethylated acceptor: 3.3 nmol/min/mg
[2]; listed as bovine rhodanese
  acceptor activity in words: neither of them reacts unless reduced and carboxymethylated
[2]; listed as rhodanese
  acceptor activity in words: neither subtilisin nor rhodanese showed any acceptor activity without prior reduction and carboxymethylation

B3: GalNAcT 2-1.A: baculovirus isolate of the full length GalNAc-transferase gene (pAC373-GalNAcT) expressed in Sf9 cells (protein)
chain: MRKFAYCKVVLATSLIWVLLDMFLLLYFSECNKCDEKKERGLPAGDVLEPVQKPHEGPGEMGKPVVIPKEDQEKMKEMFKINQFNLMASEMIALNRSLPDVRLEGCKTKVYPDNLPTTSVVIVFHNEAWSTLLRTVHSVINRSPRHMLEEIVLVDDASERDFLKRPLESYVKKLKVPVHVIRMEQRSGLIRARLKGAAVSKGQVITFLDAHCECTVGWLEPLLARIKHDRKTVVCPIIDVISDDTFEYMAGSDMTYGGFNWKLNFRWYPVPQREMDRRKGDRTLPVRTPTMAGGLFSIDRDYFQEIGTYDAGMDIWGGENLEISFRIWQCGGTLEIVTCSHVGHVFRKATPYTFPGGTGQIINKNNRRLAEVWMDEFKNFFYIISPGVTKVDYGDISSRLGLRHKLQCRPFSWYLENIYPDSQIPRHYFSLGEIRNVETNQCLDNMARKENEKVGIFNCHGMGGNQVFSYTANKEIRTDDLCLDVSKLNGPVTMLKCHHLKGNQLWEYDPVKLTLQHVNSNQCLDKATDEDSQVPSIRDCSGSRSQQWLLRNVTLPEIF
[3]
  Specific activity: 13.9 Units/mg protein
  Relative rate: 87
[1]
  Total activity, cell lysate: 16.22 U
  Total activity, culture medium: 1.61 U

B4: GalNAcT 2-1.B: baculovirus isolate of the full length GalNAc-transferase gene (pAC373-GalNAcT) expressed in Sf9 cells (protein)
chain: MRKFAYCKVVLATSLIWVLLDMFLLLYFSECNKCDEKKERGLPAGDVLEPVQKPHEGPGEMGKPVVIPKEDQEKMKEMFKINQFNLMASEMIALNRSLPDVRLEGCKTKVYPDNLPTTSVVIVFHNEAWSTLLRTVHSVINRSPRHMLEEIVLVDDASERDFLKRPLESYVKKLKVPVHVIRMEQRSGLIRARLKGAAVSKGQVITFLDAHCECTVGWLEPLLARIKHDRKTVVCPIIDVISDDTFEYMAGSDMTYGGFNWKLNFRWYPVPQREMDRRKGDRTLPVRTPTMAGGLFSIDRDYFQEIGTYDAGMDIWGGENLEISFRIWQCGGTLEIVTCSHVGHVFRKATPYTFPGGTGQIINKNNRRLAEVWMDEFKNFFYIISPGVTKVDYGDISSRLGLRHKLQCRPFSWYLENIYPDSQIPRHYFSLGEIRNVETNQCLDNMARKENEKVGIFNCHGMGGNQVFSYTANKEIRTDDLCLDVSKLNGPVTMLKCHHLKGNQLWEYDPVKLTLQHVNSNQCLDKATDEDSQVPSIRDCSGSRSQQWLLRNVTLPEIF
[3]
  Specific activity: 11.9 Units/mg protein
  Relative rate: 74

B5: Subtilisin: bacterial protein produced by a microbial system incapable of O-linked oligosaccharide biosynthesis (protein, UniProt P00782 108-382, looked up)
Subtilisin BPN': AQSVPYGVSQIKAPALHSQGYTGSNVKVAVIDSGIDSSHPDLKVAGGASMVPSETNPFQDNNSHGTHVAGTVAALNNSIGVLGVAPSASLYAVKVLGADGSGQYSWIINGIEWAIANNMDVINMSLGGPSGSAALKAAVDKAVASGVVVVAAAGNEGTSGSSSTVGYPGKYPSVIAVGAVDSSNQRASFSSVGPELDVMAPGVSIQSTLPGNKYGAYNGTSMASPHVAGAAALILSKHPNWTNTQVRSSLENTTTKLGDSFYYGKGLINVQAAAQ
[2]
  Product formed, native acceptor: < 0.1 nmol/min/mg
  Product formed, reduced and carboxymethylated acceptor: 0.6 nmol/min/mg
  acceptor activity in words: neither of them reacts unless reduced and carboxymethylated; also recorded: neither subtilisin nor rhodanese showed any acceptor activity without prior reduction and carboxymethylation
[2]; denatured subtilisin vs myelin basic protein
  transfer rate slower than to myelin basic protein: 35 times
